Data reported in publication PMC8910529.

Tests used:
[1] = biological target: His598 (UniProt position 598, TSCGCHEAIMA); assay: kinetics; settings: 20 mM PBS; Ni-reconstituted protein (Nid site occupied, labile Nip removed with phenanthroline), turning over superoxide
[2] = biological target: His598 (UniProt position 598, TYCGCHEAIMA); assay: kinetics; settings: 20 mM PBS; Ni-reconstituted protein (Nid site occupied, labile Nip removed with phenanthroline), turning over superoxide

Row | Substance | pKa [1] | pKa [2]
1 | Acetyl-coenzyme A synthase, truncated C-terminal fragment ACS-alpha15, EFG-F598H variant (Moorella thermoacetica; F598H;S594_C595insEFG) | 6.09 | 
2 | Acetyl-coenzyme A synthase, truncated C-terminal fragment ACS-alpha15, YGP-F598H variant (Moorella thermoacetica; S594Y;Y594_C595insGP;F598H) |  | 5.87
